The results in this text go back to the RNAGym collection of RNA variant scans (doi:10.1093/molbev/msab373).

Sequences and labels used below:
B1: Azoarcus group I ribozyme (parent)
chain: GUGCCUUGCGCCGGGAAACCACGCAAGGGAUGGUGUCAAAUUCGGCGAAACCUAAGCGCCCGCCCGGGCGUAUGGCAACGCCGAGCCAAGCUUCGGCGCCUGCGCCGAUGAAGGUGUAGAGACUAGACGGCACCCACCUAAGGCAAACGCUAUGGUGAAGGCAUAGUCCAGGGAGUGGCGAAAGUCACACAAACCGG

In this data set the parent is B1. Briefly: reverse-splicing fitness (ratio to wild type); higher = more active; in vitro selection; Mg2+ level not given. The essentials:
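An in vitro group I ribozyme library with randomized positions was T7-transcribed and gel-purified. In triplicate, 10 pmol RNA in EPPS pH 7.5 was reacted with 50 pmoles of a 30-nt RNA substrate for 1 h at 37 °C across several added MgCl2 levels (1–48 mM), then stopped with EDTA. Products were reverse transcribed from a substrate-complementary primer, PCR-amplified and sequenced (HiSeq 4000). Fitness is a variant's read proportion after selection over that before, normalised to wild type.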
Take GUGCCUUGCGCCGGGAAACCACGCAAGGGAUGGUGUCAAAUUCGGCGAAACCUAAGCGCCCGCCCGGGCGUAUGGCAACGCAGAGCCAAGCUUCGGCGCCUGCGCCGAUGGAGGUGUAGUGACUAGACGGCACCCACCUAAGGCGAACGAUAUGGUGAAGGCAUAGUCCAGGGAGUGGCGAAAGUCACACAAACCGG [C82A A111G A120U A145G C150A]: the reverse-splicing fitness turned out to be 0.00991. Next, GUGCCUUGCGCCGGGAAACCACGCAAGGGAUGGUGUCAAAUUCGGCGAAACCUAAGCGCCCGCCCGGGCGUAUGGCAACGCAGAGCCAAGCUUCGGCGCCUGCGCCGAUGGAGGUGUAGUGACUAGACGGCACCCACCUAAGGCCAACGUUAUGGUGAAGGCAUAGUCGAGGGAGUGGCGAAAGUCACACAAACCGG [C82A A111G A120U A145C C150U C169G]: 0.00298; GUGCCUUGCGCCGGGAAACCACGCAAGGGAUGGUGUCAAAUUCGGCGAAACCUAAGCGCCCGCCCGGGCGUAUGGCAACGCAGAGCCAAGCUUCGGCGCCUGCGCCGAUGGAGGUGUAGUGACUAGACGGCACCCACCUAAGGCCAACGUUAUGGUGAAGGCAUAGUCUAGGGAGUGGCGAAAGUCACACAAACCGG [C82A A111G A120U A145C C150U C169U]: 0.00308; GUGCCUUGCGCCGGGAAACCACGCAAGGGAUGGUGUCAAAUUCGGCGAAACCUAAGCGCCCGCCCGGGCGUAUGGCAACGCAGAGCCAAGCUUCGGCGCCUGCGCCGAUGGAGGUGUAGUGACUAGACGGCACCCACCUAAGGCCAACGCUAUGGUGAAGGCAUAGUCGAGGGAGAGGCGAAAGUCACACAAACCGG [C82A A111G A120U A145C C169G U176A]: 0.00249. Next, GUGCCUUGCGCCGGGAAACCACGCAAGGGAUGGUGUCAAAUUCGGCGAAACCUAAGCGCCCGCCCGGGCGUAUGGCAACGCAGAGCCAAGCUUCGGCGCCUGCGCCGAUGGAGGUGUAGUGACUAGACGGCACCCACCUAAGGCCAACGCUAUGGUGAAGGCAUAGUCGAGGGAGGGGCGAAAGUCACACAAACCGG [C82A A111G A120U A145C C169G U176G]: 0.00175; GUGCCUUGCGCCGGGAAACCACGCAAGGGAUGGUGUCAAAUUCGGCGAAACCUAAGCGCCCGCCCGGGCGUAUGGCAACGCAGAGCCAAGCUUCGGCGCCUGCGCCGAUGGAGGUGUAGUGACUAGACGGCACCCACCUAAGGCCAACGCUAUGGUGAAGGCAUAGUCGAGGGAGCGGCGAAAGUCACACAAACCGG [C82A A111G A120U A145C C169G U176C]: 0.00189; GUGCCUUGCGCCGGGAAACCACGCAAGGGAUGGUGUCAAAUUCGGCGAAACCUAAGCGCCCGCCCGGGCGUAUGGCAACGCAGAGCCAAGCUUCGGCGCCUGCGCCGAUGGAGGUGUAGUGACUAGACGGCACCCACCUAAGGCCAACGUUAUGGUGAAGGCAUAGUCGAGGGAGCGGCGAAAGUCACACAAACCGG [C82A A111G A120U A145C C150U C169G U176C]: 0.0025.

Take GUGCCUUGCGCCGGGAAACCACGCAAGGGAUGGUGUCAAAUUCGGCGAAACCUAAGCGCCCGCCCGGGCGUAUGGCAACGCAGAGCCAAGCUUCGGCGCCUGCGCCGAUGGAGGUGUAGUGACUAGACGGCACCCACCUAAGGCCAACGUUAUGGUGAAGGCAUAGUCGAGGGAGGGGCGAAAGUCACACAAACCGG [C82A A111G A120U A145C C150U C169G U176G]: the reverse-splicing fitness came out at 0.00192. Next, GUGCCUUGCGCCGGGAAACCACGCAAGGGAUGGUGUCAAAUUCGGCGAAACCUAAGCGCCCGCCCGGGCGUAUGGCAACGCAGAGCCAAGCUUCGGCGCCUGCGCCGAUGGAGGUGUAGUGACUAGACGGCACCCACCUAAGGCCAACGUUAUGGUGAAGGCAUAGUCGAGGGAGAGGCGAAAGUCACACAAACCGG [C82A A111G A120U A145C C150U C169G U176A]: 0.00301; GUGCCUUGCGCCGGGAAACCACGCAAGGGAUGGUGUCAAAUUCGGCGAAACCUAAGCGCCCGCCCGGGCGUAUGGCAACGCAGAGCCAAGCUUCGGCGCCUGCGCCGAUGGAGGUGUAGUGACUAGACGGCACCCACCUAAGGCCAACGUUAUGGUGAAGGCAUAGUCAAGGGAGGGGCGAAAGUCACACAAACCGG [C82A A111G A120U A145C C150U C169A U176G]: 0.00215.

With GUGCCUUGCGCCGGGAAACCACGCAAGGGAUGGUGUCAAAUUCGGCGAAACCUAAGCGCCCGCCCGGGCGUAUGGCAACGCAGAGCCAAGCUUCGGCGCCUGCGCCGAUGGAGGUGUAGUGACUAGACGGCACCCACCUAAGGCCAACGCUAUGGUGAAGGCAUAGUCGAGGGAGUGGCGAAAGUCACACAAACCGG [C82A A111G A120U A145C C169G], the reverse-splicing fitness came to 0.00315. Next, GUGCCUUGCGCCGGGAAACCACGCAAGGGAUGGUGUCAAAUUCGGCGAAACCUAAGCGCCCGCCCGGGCGUAUGGCAACGCAGAGCCAAGCUUCGGCGCCUGCGCCGAUGGAGGUGUAGUGACUAGACGGCACCCACCUAAGGCCAACGCUAUGGUGAAGGCAUAGUCAAGGGAGUGGCGAAAGUCACACAAACCGG [C82A A111G A120U A145C C169A]: 0.00203; GUGCCUUGCGCCGGGAAACCACGCAAGGGAUGGUGUCAAAUUCGGCGAAACCUAAGCGCCCGCCCGGGCGUAUGGCAACGCAGAGCCAAGCUUCGGCGCCUGCGCCGAUGGAGGUGUAGUGACUAGACGGCACCCACCUAAGGCCAACGCUAUGGUGAAGGCAUAGUCUAGGGAGUGGCGAAAGUCACACAAACCGG [C82A A111G A120U A145C C169U]: 0.00349.

As to GUGCCUUGCGCCGGGAAACCACGCAAGGGAUGGUGUCAAAUUCGGCGAAACCUAAGCGCCCGCCCGGGCGUAUGGCAACGCAGAGCCAAGCUUCGGCGCCUGCGCCGAUGGAGGUGUAGUGACUAGACGGCACCCACCUAAGGCGAACGAUAUGGUGAAGGCAUAGUCAAGGGAGUGGCGAAAGUCACACAAACCGG [C82A A111G A120U A145G C150A C169A], the reverse-splicing fitness was 0.00676.

In the case of GUGCCUUGCGCCGGGAAACCACGCAAGGGAUGGUGUCAAAUUCGGCGAAACCUAAGCGCCCGCCCGGGCGUAUGGCAACGCAGAGCCAAGCUUCGGCGCCUGCGCCGAUGGAGGUGUAGUGACUAGACGGCACCCACCUAAGGCCAACGCUAUGGUGAAGGCAUAGUCCAGGGAGCGGCGAAAGUCACACAAACCGG [C82A A111G A120U A145C U176C], the reverse-splicing fitness amounted to 0.0111.
